# Key:
# [1] = tested on: Primary Human Gingival Fibroblasts; assay: In-Vitro Human Gingival Fibroblasts Soluble Collagen Assay; type: cell-based; settings: 72 hours
# Description: Stage 1: Culturing Primary Human Gingival Fibroblasts (“HGF”): Primary Human Gingival Fibroblasts (“HGF”) were collected from tooth extraction patients and washed with 5 mL of PBS (phosphate buffered saline). The tissues were chopped into small pieces and placed into 15 mL centrifuge tube. The samples were digested with equal amounts of 1 mL 8% dispase and 1 mL 6% collagenase for 1 hr at 37° C., during which time the samples need to be shaken every 15 minutes. Once the digestion process was complete, the tube was centrifuged at 1100 r.p.m. for 6 minutes at room temperature. After centrifugation, a pellet of cells was formed in the bottom of the tube separating them from the supernatant solution. […] The petri dish with cells were placed in the incubator at 37° C. with 5% CO2 for about 10 days. The petri dish was checked for changes in medium color every two days. Fresh culture medium was replaced if changes in medium color occurred.
# It was occasionally necessary to tap the petri dish to remove any sticky cells from the petri dish surface. At least 1 mL of fresh MEM culture medium was added to inactivate the trypsin and the cells are collected into a 15 mL centrifuge tube. The tube was then centrifuged at 1100 r.p.m. for 6 minutes at room temperature. […] Petri dishes were each placed with 1 mL cell suspension and 9 mL fresh MEM culture medium in the incubator at 37° C. with 5% CO2 for about 3-5 days until 80-90% cell monolayer coverage on the petri dishes was observed. […] 1 mL cell suspension and 1 mL fresh MEM culture medium were respectively added into each well of a 6-well plate. The cells were further washed with 2 mL PBS to remove any suspended cells until no suspended cells are visible. 2 mL culture medium, or 2 mL culture medium containing 1% Comparative Compositions or 2 mL culture medium containing 1% Inventive Compositions were added to the wells. Cells were maintained in the incubator at 37° C. with 5% CO2 for 72 hours.
# After treatment, cells were washed two times with chilled PBS and homogenized with 6M urea. The cell homogenates were centrifuged at 15,000 r.p.m. for 15 min. 100 μL of the supernatant was mixed with 1 mL of Sircol Dye Reagent for 30 minutes. During this time period, a collagen-dye complex formed and precipitated out from the soluble unbound dye. The tubes were transferred to a microcentrifuge and spun at 12,000 r.p.m. for 10 minutes. The tubes were carefully inverted and drained. 750 μL ice-cold Acid-Salt Wash Reagent was gently added to the collagen-dye pellet to remove unbound dye from the surface of the pellet and the inside surface of the microcentrifuge tube. The tube was then centrifuged at 12,000 r.p.m. for 10 minutes. […]
# COL1A1 = assay: Compound Screening on Skin Dermis, collagen gene expression (microarray); type: in vivo, human; settings: dorsal forearm twice daily, four weeks, retinol at 0.2%, Pal-KTTKS at 100 ppm, vs vehicle, p-value in brackets
# Description: (§1) To screen compounds, 30 to 40 female subjects with Fitzpatrick skin types I-III, aged 60-70. At Baseline, each subject was assigned to test each treatment. The products were applied to the dorsal forearm twice daily. Topical treatment with a minimally efficacious moisturizer was used as the vehicle for each test compound and as the negative control.
# (§2) After four weeks of treatment, one 4-mm punch biopsy was taken from each treated site. The dermis was separated and snap-frozen in liquid nitrogen and stored at −80° C. until assayed. The frozen tissue was then processed for gene expression analysis. To determine gene expression levels, RNA was extracted, labeled with biotin, hybridized and analyzed using Affymetrix GeneTitan® U219 microarray plates according to the manufacturer's instructions.
# (§3) For genomics analysis, microarray sample quality was assessed using principal components analysis and MA-plots. Treatment to negative control comparisons for the microarray data were assessed using ANOVA models fitted separately for each probe set. ANOVA model hypothesis tests were evaluated using the Empirical Bayes method available in the limma R package. A p-value cutoff of 0.05 or less was consider statistically significant.
# COL1A2 = assay: as above; type: in vivo, human; settings: dorsal forearm twice daily, four weeks, retinol at 0.2%, Pal-KTTKS at 100 ppm, vs vehicle, p-value in brackets
# Description: as §1, §2, §3
Substance,"Collagen Productivity (Collagen/Cell) ([1]; Table 5, 1% composition in culture medium, TGF-B 5 ppm)","Collagen Productivity (Collagen/Cell) ([1]; Table 6, 1:100 dilution, TGF-B 5 ppm)","Collagen Productivity (Collagen/Cell) ([1]; Table 7, 1:100 dilution, TGF-B 5 ppm)","Collagen Productivity (Collagen/Cell) ([1]; Table 9, 1:100 dilution, TGF-b 5 ppm)",COL1A1 LFC (Log base 2 of the average Fold Change) (COL1A1),COL1A2 LFC (Log base 2 of the average Fold Change) (COL1A2)
TGF-B,5.17 Collagen/Cell,4.86 Collagen/Cell,4.86 Collagen/Cell,5.17 Collagen/Cell,–,–
palmitoyl-lys-thr-thr-lys-ser [Pal-KTTKS],–,–,–,–,−0.15 (0.44),−0.048 (0.91)
